Test results: publication PMC5537682, “DNA-Interacting Characteristics of the Archaeal Rudiviral Protein SIRV2_Gp1”

How the values were obtained:
SIRV2_Gp1 [1] = molecular target: T1, SIRV2_Gp1 (Sulfolobus islandicus rod-shaped virus …, UniProt Q8UYE8 1-83); test: EMSA; >1 uM protein needed; higher affinity than single-stranded probes; 6-FAM EMSA: 50 mM Tris pH 7.5, 5 mM EDTA, 1 mM DTT, 100 ug/mL BSA, 100 nM probe, 20 min room temperature; 32P EMSA: 20 mM Tris pH 8.0, 0.4 mM EDTA, 1 mM MgCl2; details: protein: recombinant; tags: C-terminal His-tag (pEXP5-CT/TOPO); blunt
T1 sequence: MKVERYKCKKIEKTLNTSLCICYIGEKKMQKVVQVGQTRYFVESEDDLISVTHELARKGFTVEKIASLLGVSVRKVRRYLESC

SIRV2_Gp1 [2] = molecular target: T1, SIRV2_Gp1; test: EMSA; >1 uM protein needed; 6-FAM EMSA: 50 mM Tris pH 7.5, 5 mM EDTA, 1 mM DTT, 100 ug/mL BSA, 100 nM probe, 20 min room temperature; 32P EMSA: 20 mM Tris pH 8.0, 0.4 mM EDTA, 1 mM MgCl2; details: protein: recombinant, tags: C-terminal His-tag (pEXP5-CT/TOPO)
SIRV2_Gp1 [3] = molecular target: T1, SIRV2_Gp1; test: EMSA; low affinity, >1 uM protein needed; smearing, unbound probe remains; 6-FAM EMSA: 50 mM Tris pH 7.5, 5 mM EDTA, 1 mM DTT, 100 ug/mL BSA, 100 nM probe, 20 min room temperature; 32P EMSA: 20 mM Tris pH 8.0, 0.4 mM EDTA, 1 mM MgCl2; details: protein: recombinant; tags: C-terminal His-tag (pEXP5-CT/TOPO); label: 5'-6-FAM; single strand

B1: random 30-bp dsDNA (oligos 3-4) (dsDNA)
DNA 1: TGAGTTTTTTTCATTTTTTGCGTAAATTTC
DNA 2: GAAATTTACGCAAAAAATGAAAAAAACTCA
binding result (SIRV2_Gp1 [1]): binds

B2: Holliday junction DNA (oligos 7-10) (structured_DNA)
DNA 1: GCGTTACAATGGAAACTATTCTTGGCAGTTGCATCCAACG
DNA 2: CGTTGGATGCAACTGCCAAGAATAGTGTCAGTTCCAGACG
DNA 3: CGTCTGGAACTGACACTATTCTTGGCGAATGGTCGTAAGC
DNA 4: GCTTACGACCATTCGCCAAGAATAGTTTCCATTGTAACGC
binding result (SIRV2_Gp1 [2]; four-way junction of 4 strands): binds

TGAGTTTTTTTCATTTTTTGCGTAAATTTC (ssDNA) [random 30-nt ssDNA (oligo 3)]
binding result (SIRV2_Gp1 [3]): binds

B3: hairpin DNA (oligo 5) (structured_DNA)
DNA: TGAGTTTTTTTCATTTTTTGCGTAAATTTCGAAATTTACGCAAAAAATGAAAAAAACTCA
binding result (SIRV2_Gp1 [2]; label: 5'-6-FAM, hairpin): binds
